{"source": "patent US20200222503A1", "key": {"FcRn": {"target": "FcRn", "test": "SPR"}, "FcγR1A": {"target": "FcγR1A", "test": "SPR"}, "[1]": {"target": "FcRn-His (Example 11) (Mus musculus (Mouse)) (UniProt Q61559)", "sequence (Q61559 22-297 limits assumed, form in doubt, chain 1 of 2)": "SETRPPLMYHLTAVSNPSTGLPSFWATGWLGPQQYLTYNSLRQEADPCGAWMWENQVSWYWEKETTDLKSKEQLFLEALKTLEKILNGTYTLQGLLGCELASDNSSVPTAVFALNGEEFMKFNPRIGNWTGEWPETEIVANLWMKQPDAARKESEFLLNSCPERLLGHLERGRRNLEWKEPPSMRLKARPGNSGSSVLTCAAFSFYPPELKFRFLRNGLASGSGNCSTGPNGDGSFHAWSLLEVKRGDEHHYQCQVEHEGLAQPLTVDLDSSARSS", "sequence (beta, as listed by the source limits assumed, form in doubt, chain 2 of 2)": "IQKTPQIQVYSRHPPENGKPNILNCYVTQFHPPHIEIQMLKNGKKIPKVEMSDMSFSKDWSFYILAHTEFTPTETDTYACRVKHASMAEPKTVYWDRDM", "test": "SPR, BioRad ProteOn XPR 360, His-tagged target on chip"}, "[2]": {"target": "OX40-His (Example 11) (Mus musculus (Mouse)) (UniProt P47741)", "sequence (P47741 20-211 limits assumed, form in doubt)": "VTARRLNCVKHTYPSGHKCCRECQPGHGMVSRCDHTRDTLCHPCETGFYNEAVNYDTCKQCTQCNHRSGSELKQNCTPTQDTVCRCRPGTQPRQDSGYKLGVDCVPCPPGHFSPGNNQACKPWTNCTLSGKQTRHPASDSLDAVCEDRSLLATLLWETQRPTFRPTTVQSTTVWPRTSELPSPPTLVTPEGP", "test": "SPR, BioRad ProteOn XPR 360, His-tagged target on chip"}, "[3]": {"target": "PD-L2-His (Example 11) (Mus musculus (Mouse)) (UniProt Q9WUL5)", "sequence (Q9WUL5 20-221 limits assumed, form in doubt)": "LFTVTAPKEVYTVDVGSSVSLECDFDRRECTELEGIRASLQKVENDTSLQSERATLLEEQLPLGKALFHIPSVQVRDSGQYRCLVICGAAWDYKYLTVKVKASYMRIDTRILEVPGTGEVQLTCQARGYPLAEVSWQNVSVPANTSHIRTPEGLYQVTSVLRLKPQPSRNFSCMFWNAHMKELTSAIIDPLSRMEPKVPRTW", "test": "SPR, BioRad ProteOn XPR 360, His-tagged target on chip"}, "mPD-L1-His (murine)": {"target": "mPD-L1-His (murine) (UniProt Q9EP73)", "sequence (Q9EP73 19-238 limits assumed)": "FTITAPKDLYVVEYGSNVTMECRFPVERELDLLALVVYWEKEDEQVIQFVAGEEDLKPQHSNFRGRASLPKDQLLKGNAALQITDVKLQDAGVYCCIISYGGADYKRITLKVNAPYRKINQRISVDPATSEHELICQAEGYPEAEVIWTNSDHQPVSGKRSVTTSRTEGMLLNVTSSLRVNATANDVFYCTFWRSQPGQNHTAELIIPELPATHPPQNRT", "test": "SPR, BioRad ProteOn XPR 360, His-tagged target on chip"}}, "data": [{"substance": "IgG1", "values": [{"measurement": "Kd", "setting": "FcRn", "value": 4.87, "unit": "nM"}, {"measurement": "Kd", "setting": "FcγR1A", "value": 17.7, "unit": "nM"}]}, {"substance": "IgG2A (control protein, Example 11) (antibody)", "values": [{"measurement": "Kd", "setting": "[1]", "value": 8.08, "unit": "nM"}, {"measurement": "koff", "setting": "[1]", "value": 0.0242, "unit": "s⁻¹"}, {"measurement": "kon", "setting": "[1]", "value": "3e+06", "unit": "M⁻¹ s⁻¹"}]}, {"substance": "OX40L-Fc (recombinant control protein, Example 11) (Fc fusion)", "values": [{"measurement": "Kd", "setting": "[2]", "value": 1.06, "unit": "nM"}, {"measurement": "koff", "setting": "[2]", "value": 0.000712, "unit": "s⁻¹"}, {"measurement": "kon", "setting": "[2]", "value": 674000, "unit": "M⁻¹ s⁻¹"}]}, {"substance": "PD1-Fc (recombinant control protein, Example 11) (Fc fusion)", "values": [{"measurement": "Kd", "setting": "[3]", "value": 23.1, "unit": "nM"}, {"measurement": "koff", "setting": "[3]", "value": 0.00171, "unit": "s⁻¹"}, {"measurement": "kon", "setting": "[3]", "value": 47900, "unit": "M⁻¹ s⁻¹"}, {"measurement": "Kd", "setting": "mPD-L1-His (murine)", "value": 33.3, "unit": "nM"}, {"measurement": "koff", "setting": "mPD-L1-His (murine)", "value": 0.00108, "unit": "s⁻¹"}, {"measurement": "kon", "setting": "mPD-L1-His (murine)", "value": 32400, "unit": "M⁻¹ s⁻¹"}]}]}
